Measurements as given in patent publication US11214614B2, “LTBP complex-specific inhibitors of TGFβ and uses thereof” (Scholar Rock, Inc., priority 2019, dated 2022).

What was measured:
huLTBP3 proTGFβ1 [1] = target: T1, huLTBP3 proTGFβ1 (Homo sapiens, UniProt P01137+Q9NS15); test: SPR (Biacore 8K) monovalent binding kinetics of Fabs, biotinylated antigen captured; parameters: biotin (complex biotinylated); settings: Fab, huLTBP3 proTGFb1
Method: (§1) A Biacore 8K system was employed to determine the monovalent binding affinity and the kinetic parameters for antigen binding of test antibodies. Association and dissociation kinetics of Fab fragments SR-AB42-HuFab, SR-AB63-HuFab and SR-AB43-HuFab to antigen complexes were measured, and resulting ka, kd and KD are provided below. Briefly, the binding kinetics were evaluated by surface plasmon resonance using Biacore 8K (GE Healthcare). Biotinylated capture antigens were immobilized to the chip (10 nM, ˜200 RU loading). A Biotin CAPture sensor chip was used to capture the biotinylated antigens. Fabs at 10, 5, 2.5, 1.25, and 0.6 nM concentrations were injected over the captured antigens. 0 nM was used as a reference. Affinities of LTBP antibodies to GARP and LRRC33 were confirmed using higher concentration of Fabs (100, 50, 25, 12.5, 6.25 nM). 0 nM was used as a reference. Multi-cycle kinetics was employed where each analyte concentration was injected in a separate cycle and the sensor chip surface was regenerated after each cycle. All the assays were carried out in freshly prepared 1×HBS-EP+buffer (10 mM HEPES, 150 mM NaCl, 3 mM EDTA, 0.05% Tween20, pH 7.4). Data were fit globally to a 1:1 binding model to obtain the kinetic parameters. The sensorgram for 0 nM analyte concentration was used as reference.
(§2) • 96 well plates—Greinerbio-one REF 650101 • Microplate Foils—GE Healthcare—CAT #28-9758-16 • Biotin CAPture Kit GE Healthcare product number 28920233 • Biacore running buffer—supplied as a 20× solution, diluted in Milli-Q water, TEKnova CAT #H8022 Method:
(§3) These experiments were performed using the Biacore 8K using the method “multi-cycle kinetics/affinity using Biotin CAPture kit.”
(§4) Data collection rate was set to 10 Hz and the Biotin CAPture step was performed for 300 seconds with a flow rate of 2 μL/minute. The Biotin CAPture reagent was used after a 1:5 dilution in 1× Biacore running buffer. Biotinylated ligands (the various complexes of TGFβ1) were utilized at a concentration of 10 nM and were immobilized to the sensor chip for 180 seconds with a flow rate of 10 μL/minute. The analytes, which are each of the Fabs, were tested at 10, 5, 2.5, 1.25, and 0.625 nM with a 0 nM control included. Analyte contact time was 120 seconds and the dissociation time was 900 seconds. The regeneration cycle utilized was 120 seconds with a flow rate of 10 μL/minute.
(§5) The evaluation method used was “multi-cycle affinity using capture” and a 1:1 binding model was used. […] Global fits were utilized for every KD determination.

huLTBP1 proTGFβ1 [2] = target: T2, huLTBP1 proTGFβ1 (Homo sapiens, UniProt P01137+Q14766); test: as above; parameters: biotin (complex biotinylated); settings: for ka / kd: Fab, huLTBP1 proTGFβ1, SR-AB42-HuFab average of five, SR-AB63-HuFab average of four replicate experiments
Method: as §1, §2, §3, §4, §5

huGARP proTGFβ1 [3] = target: T3, huGARP proTGFβ1 (Homo sapiens, UniProt P01137); test: as above; parameters: biotin (complex biotinylated); settings: Fab, huGARP proTGFb1
Method: as §1, §2, §3, §4, §5

huLRRC33 proTGFβ1 = huLRRC33 proTGFβ1 (Homo sapiens, UniProt P01137); test: as above; parameters: biotin (complex biotinylated); modified human kappa light chain signal peptide (N); Histidine tag (C); settings: Fab, huLRRC33 proTGFb1
Method: as §1, §2, §3, §4, §5

huLTBP3 proTGFβ1 [4] = target: T1, huLTBP3 proTGFβ1; test: Octet (BLI) binding, IgG captured on AHC tips, antigen at 100 nM; settings: Table 9, cycle 3, IgG1-agly
Method: (§6) Suitable methods for in vitro binding assays to determine the parameters of binding kinetics include Bio-layer Interferometry (BLI)-based assays such as Octet, and surface plasmon resonance (SPR)-based assays, such as Biacore systems (see, for example: biophysics.bioc.cam.ac.uk/wp-content/uploads/2011/02/Biacore_assay_handbook.pdf).
(§7) The affinity of SR-AB10, SR-AB2 and SR-AB13 was measured by Octet assay. The protocol used to measure the affinity of the antibodies to the complexes provided herein is summarized below.
(§8) • 96 well black polypropylene plates • AHC Octet tips (anti-human IgG Fc capture tips) (FortdBio) • 10× kinetics buffer (FortdBio) (diluted to 1× in PBS) • reiner Bio-One 96-Well Half Area Microplates (VWR cat #82050-044) Procedure:
(§9) Notes: The volume within each well during an Octet experiment is 100 uL.
(§10) A shake speed of 1000 rpm is used for all assay steps.
(§11) Pre-Wet Tips: • Biosensors must be pre-wet in 1× kinetics buffer (lx KB) for at least 10 minutes before starting an experiment. This can be done inside the Octet or on the bench.
(§12) Loading: • Tips are baselined in 1× KB for 1 minute before loading. • AHC tips are loaded with antibody at a concentration of 1 μg/mL (˜7 nM) for 3 minutes. A limit is set so that loading will stop when any one sensor reaches a response of 1 nanometer. • Tips are baselined in buffer for 1 minute after loading. The antibody should not dissociate from the tips during this time.
(§13) Antigen Association: • TGFβ1 in complex with various presentation molecules was associated to the immobilized antibodies at a single concentration of 100 nM in 1× KB.
(§14) Antibody Dissociation: • Dissociation in 1×KB was performed for 3 minutes.
(§15) Data Analysis using ForteBio Data analysis software 8.2: • Processing: align Y axis to last 5 seconds of baseline, perform inter-step correction with align to dissociation, and perform Savitzky-Golay filtering. • Analysis: 1:1 fitting model is utilized. Fitting is local and full. […] Results:
(§16) LTBP complex-specific antibodies from the first round of affinity maturation/optimization (SR-AB14, SR-AB16, SR-AB17, SR-AB18, SR-AB19) were selected for a second round of affinity maturation/optimization (i.e., CDR-H3 mutagenesis as described herein) and particular progeny antibodies (SR-AB20, SR-AB21, SR-AB22, SR-AB23, SR-AB24, SR-AB25, SR-AB26, SR-AB27, SR-AB28, and SR-AB29) were assessed for their ability to bind various proTGFβl constructs. Binding affinities of the optimized antibodies were measured by Octet against human LTBP1-proTGFβI, human LTBP3-proTGFb1, mouse LTBP1-proTGFβ1, mouse LTBP3-proTGFb1, and GARP-proTGFβl complexes, essentially as described in Example 6. In brief, test antibodies were immobilized to the surface of anti-human Fc capture biosensors (AHC) (ForteBio®) and binding was then tested against the various TGFβ1 complexes at a single concentration of 100 nM to assess binding affinities. The antigens were allowed to associate for 3 minutes followed by a 5-minute dissociation. Kinetics buffer (ForteBio®) was used throughout the experiment, and KD was determined using a 1:1 fitting model for each antibody antigen pair.
(§17) Binding affinities of the optimized antibodies were measured by Octet against human LTBP1-proTGFβ1, human LTBP3-proTGFβ1, mouse LTBP1-proTGFβ1, mouse LTBP3-proTGFβ1, and GARP-proTGFβ1 complexes, essentially as described in Example 6. In brief, test antibodies were immobilized to the surface of anti-human Fc capture biosensors (AHC) (ForteBio®) and binding was then tested against the various TGFβ1 complexes at a single concentration of 100 nM to assess binding affinities. The antigens were allowed to associate for 3 minutes followed by a 5-minute dissociation. Kinetics buffer (ForteBio®) was used throughout the experiment, and KD was determined using a 1:1 fitting model for each antibody antigen pair.

huLTBP1 proTGFβ1 [5] = target: T2, huLTBP1 proTGFβ1; test: as above; settings: Table 9, cycle 3, IgG1-agly
Method: as §6, §7, §8, §9, §10, §11, §12, §13, §14, §15, §16
as §17, with “pair. […]” for “pair.”

huGARP proTGFβ1 [6] = target: T3, huGARP proTGFβ1; test: as above; settings: N.B. = non-binder under conditions of this assay
Method: as §6, §7, §8, §9, §10, §11, §12, §13, §14, §15, §16
as §17, with “pair. […]” for “pair.”

Murine LTBP3 proTGFβ1 = target: T4, Murine LTBP3 proTGFβ1 (Mus musculus, UniProt P04202+Q61810); test: SPR (Biacore 8K) monovalent binding kinetics of Fabs, biotinylated antigen captured; settings: Fab, Murine LTBP3 proTGFb1; average of two replicate experiments
T4 construct: biotin (complex biotinylated)
Method: as §1, §2, §3, §4, §5

T4 sequence (P04202 30-390): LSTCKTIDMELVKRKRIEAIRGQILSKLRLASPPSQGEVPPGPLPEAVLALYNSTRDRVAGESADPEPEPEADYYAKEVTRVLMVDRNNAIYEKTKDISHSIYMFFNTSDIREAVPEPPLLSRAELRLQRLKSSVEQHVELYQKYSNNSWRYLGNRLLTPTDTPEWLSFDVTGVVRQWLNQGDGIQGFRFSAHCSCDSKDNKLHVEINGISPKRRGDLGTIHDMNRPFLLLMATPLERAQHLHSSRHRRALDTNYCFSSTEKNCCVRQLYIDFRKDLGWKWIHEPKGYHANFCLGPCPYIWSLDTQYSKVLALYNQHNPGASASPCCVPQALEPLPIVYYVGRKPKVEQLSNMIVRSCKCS
T4 sequence (Q61810 with tags, fused parts or gaps with the stated changes limits assumed): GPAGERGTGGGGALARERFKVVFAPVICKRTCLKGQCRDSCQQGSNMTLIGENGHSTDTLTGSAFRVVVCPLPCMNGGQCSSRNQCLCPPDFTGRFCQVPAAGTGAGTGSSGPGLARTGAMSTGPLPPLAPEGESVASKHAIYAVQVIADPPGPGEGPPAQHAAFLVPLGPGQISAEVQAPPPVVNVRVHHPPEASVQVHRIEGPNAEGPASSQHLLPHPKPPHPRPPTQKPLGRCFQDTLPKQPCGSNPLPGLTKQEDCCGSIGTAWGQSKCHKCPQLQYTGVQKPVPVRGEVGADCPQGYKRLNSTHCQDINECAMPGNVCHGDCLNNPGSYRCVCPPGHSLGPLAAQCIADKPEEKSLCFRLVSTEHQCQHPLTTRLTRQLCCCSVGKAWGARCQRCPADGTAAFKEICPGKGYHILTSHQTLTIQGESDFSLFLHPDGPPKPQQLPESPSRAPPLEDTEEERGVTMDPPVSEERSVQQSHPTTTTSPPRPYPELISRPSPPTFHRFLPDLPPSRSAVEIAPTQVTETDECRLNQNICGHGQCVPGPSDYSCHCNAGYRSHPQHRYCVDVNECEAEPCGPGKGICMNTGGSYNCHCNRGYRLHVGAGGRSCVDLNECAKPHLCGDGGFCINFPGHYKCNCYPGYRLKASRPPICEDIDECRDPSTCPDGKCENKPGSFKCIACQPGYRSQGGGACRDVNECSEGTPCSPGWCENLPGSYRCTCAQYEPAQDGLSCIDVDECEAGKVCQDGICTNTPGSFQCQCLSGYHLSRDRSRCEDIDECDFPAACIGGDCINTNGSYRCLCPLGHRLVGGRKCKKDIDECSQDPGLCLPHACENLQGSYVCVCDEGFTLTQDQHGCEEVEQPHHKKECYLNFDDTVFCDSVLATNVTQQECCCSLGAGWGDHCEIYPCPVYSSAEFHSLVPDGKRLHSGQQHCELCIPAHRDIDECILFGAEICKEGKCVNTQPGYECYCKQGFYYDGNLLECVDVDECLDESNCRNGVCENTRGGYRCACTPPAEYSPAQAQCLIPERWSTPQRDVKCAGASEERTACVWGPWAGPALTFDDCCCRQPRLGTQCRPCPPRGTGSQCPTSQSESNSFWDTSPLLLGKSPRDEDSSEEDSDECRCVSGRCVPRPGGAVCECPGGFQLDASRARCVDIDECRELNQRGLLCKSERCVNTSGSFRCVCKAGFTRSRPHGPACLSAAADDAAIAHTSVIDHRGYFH
T3 sequence (P01137 30-390): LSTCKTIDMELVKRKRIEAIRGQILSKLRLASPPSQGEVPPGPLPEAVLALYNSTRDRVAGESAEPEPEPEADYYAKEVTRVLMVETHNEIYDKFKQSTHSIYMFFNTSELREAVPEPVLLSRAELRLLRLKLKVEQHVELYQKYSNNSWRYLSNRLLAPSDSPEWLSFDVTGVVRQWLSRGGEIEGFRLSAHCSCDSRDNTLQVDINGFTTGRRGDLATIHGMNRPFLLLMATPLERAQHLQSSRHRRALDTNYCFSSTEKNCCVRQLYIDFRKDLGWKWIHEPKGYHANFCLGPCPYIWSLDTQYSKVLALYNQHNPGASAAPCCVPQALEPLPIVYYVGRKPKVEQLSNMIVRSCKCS
T3 sequence (Q14392 18-627 partner limits assumed): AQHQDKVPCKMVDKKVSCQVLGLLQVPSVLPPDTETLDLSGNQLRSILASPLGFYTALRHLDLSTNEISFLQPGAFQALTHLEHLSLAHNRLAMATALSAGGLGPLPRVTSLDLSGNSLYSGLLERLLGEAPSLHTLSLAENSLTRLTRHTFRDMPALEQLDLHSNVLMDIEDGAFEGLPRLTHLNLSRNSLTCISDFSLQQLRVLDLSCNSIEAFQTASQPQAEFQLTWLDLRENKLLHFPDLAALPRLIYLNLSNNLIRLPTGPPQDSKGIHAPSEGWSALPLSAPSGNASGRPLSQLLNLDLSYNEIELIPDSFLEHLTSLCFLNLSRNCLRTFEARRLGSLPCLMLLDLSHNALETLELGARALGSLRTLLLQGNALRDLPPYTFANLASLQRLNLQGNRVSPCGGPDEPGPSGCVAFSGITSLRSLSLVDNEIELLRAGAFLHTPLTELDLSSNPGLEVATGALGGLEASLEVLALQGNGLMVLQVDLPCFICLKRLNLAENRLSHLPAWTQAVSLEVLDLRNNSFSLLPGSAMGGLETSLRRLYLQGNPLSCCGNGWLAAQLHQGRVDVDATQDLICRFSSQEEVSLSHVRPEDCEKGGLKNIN
T1 sequence (P01137 30-390): as the sequence (P01137 30-390) above
T1 sequence (Q9NS15 44-1303): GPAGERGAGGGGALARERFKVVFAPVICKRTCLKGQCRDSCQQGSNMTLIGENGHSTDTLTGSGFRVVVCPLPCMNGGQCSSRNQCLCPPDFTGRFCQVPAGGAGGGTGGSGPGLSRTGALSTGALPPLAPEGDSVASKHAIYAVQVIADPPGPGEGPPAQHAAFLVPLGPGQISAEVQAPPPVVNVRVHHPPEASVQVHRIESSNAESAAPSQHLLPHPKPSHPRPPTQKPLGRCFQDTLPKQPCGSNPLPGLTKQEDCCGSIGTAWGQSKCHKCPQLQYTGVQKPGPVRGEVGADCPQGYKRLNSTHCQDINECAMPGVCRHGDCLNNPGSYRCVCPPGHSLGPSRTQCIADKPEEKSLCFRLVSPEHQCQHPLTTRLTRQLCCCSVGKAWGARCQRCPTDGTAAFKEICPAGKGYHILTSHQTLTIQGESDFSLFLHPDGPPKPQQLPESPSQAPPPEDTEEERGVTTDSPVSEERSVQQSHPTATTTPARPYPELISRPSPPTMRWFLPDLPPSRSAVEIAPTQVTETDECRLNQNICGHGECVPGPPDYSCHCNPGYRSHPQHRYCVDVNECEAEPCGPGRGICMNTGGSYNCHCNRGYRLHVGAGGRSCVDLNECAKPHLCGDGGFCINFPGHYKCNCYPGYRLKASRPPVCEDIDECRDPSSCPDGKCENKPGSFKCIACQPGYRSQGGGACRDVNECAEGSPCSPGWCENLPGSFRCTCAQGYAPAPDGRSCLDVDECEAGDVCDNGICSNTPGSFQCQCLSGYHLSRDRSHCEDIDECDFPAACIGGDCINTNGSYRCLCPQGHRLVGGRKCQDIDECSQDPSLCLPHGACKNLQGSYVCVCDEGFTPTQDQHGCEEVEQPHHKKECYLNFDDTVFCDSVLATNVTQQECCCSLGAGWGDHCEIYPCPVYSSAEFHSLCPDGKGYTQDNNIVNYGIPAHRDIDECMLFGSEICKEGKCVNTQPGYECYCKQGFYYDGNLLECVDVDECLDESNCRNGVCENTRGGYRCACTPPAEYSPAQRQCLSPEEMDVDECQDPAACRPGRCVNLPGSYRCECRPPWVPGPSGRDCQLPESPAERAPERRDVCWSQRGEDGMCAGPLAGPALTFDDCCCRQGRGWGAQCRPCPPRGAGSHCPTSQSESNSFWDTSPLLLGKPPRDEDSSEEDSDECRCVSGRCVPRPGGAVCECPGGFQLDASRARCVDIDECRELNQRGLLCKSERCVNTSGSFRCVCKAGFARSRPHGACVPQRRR
Chain of huLRRC33 proTGFβ1 (P01137 30-390): as the sequence (P01137 30-390) above
Chain of huLRRC33 proTGFβ1 (Q86YC3 with tags, fused parts or gaps partner limits assumed): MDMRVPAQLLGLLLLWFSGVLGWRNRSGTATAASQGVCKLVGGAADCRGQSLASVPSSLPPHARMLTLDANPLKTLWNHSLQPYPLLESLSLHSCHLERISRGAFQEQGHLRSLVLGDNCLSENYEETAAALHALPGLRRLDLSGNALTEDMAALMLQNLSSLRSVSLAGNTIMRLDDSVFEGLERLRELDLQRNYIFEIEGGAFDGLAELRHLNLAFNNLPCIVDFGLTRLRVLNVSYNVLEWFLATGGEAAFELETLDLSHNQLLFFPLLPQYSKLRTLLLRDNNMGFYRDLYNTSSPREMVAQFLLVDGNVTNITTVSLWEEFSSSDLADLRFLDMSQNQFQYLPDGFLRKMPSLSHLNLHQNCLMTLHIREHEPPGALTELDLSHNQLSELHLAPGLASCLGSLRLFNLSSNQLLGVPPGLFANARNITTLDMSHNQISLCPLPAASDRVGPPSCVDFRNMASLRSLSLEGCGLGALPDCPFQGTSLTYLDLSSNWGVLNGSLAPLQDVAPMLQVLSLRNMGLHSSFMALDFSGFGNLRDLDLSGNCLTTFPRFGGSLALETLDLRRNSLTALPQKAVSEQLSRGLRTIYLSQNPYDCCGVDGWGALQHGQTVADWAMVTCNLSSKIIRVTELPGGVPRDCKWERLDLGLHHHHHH

ka (huLTBP3 proTGFβ1 [1])	kd (huLTBP3 proTGFβ1 [1])	ka (huLTBP1 proTGFβ1 [2])	kd (huLTBP1 proTGFβ1 [2])	ka (huGARP proTGFβ1 [3])	kd (huGARP proTGFβ1 [3])	ka (huLRRC33 proTGFβ1)	kd (huLRRC33 proTGFβ1)	KD of Fab fragments (huLTBP1 proTGFβ1 [2]; SPR, Fab fragments, antigen not given)	Hu LTBP3-proTGFβ1 Kon (huLTBP3 proTGFβ1 [4]; 1:1 fit)	Hu LTBP3-proTGFβ1 Koff (huLTBP3 proTGFβ1 [4]; 5-minute dissociation)	Hu LTBP1-proTGFβ1 Kon (huLTBP1 proTGFβ1 [5]; 1:1 fit)	Hu LTBP1-proTGFβ1 Koff (huLTBP1 proTGFβ1 [5]; 5-minute dissociation)	ForteBio IgG KD Hu GARP-proTGFβ1 (M) Avid (huGARP proTGFβ1 [6]; Table 9, cycle 3, IgG1-agly, 1:1 fit)	ForteBio IgG KD Hu GARP-proTGFβ1 in solution (M) Avid (huGARP proTGFβ1 [6]; Table 10, same assay conditions as Table 9)	ka (Murine LTBP3 proTGFβ1)	kd (Murine LTBP3 proTGFβ1)	Molecule
394000 M⁻¹ s⁻¹	4.99e-05 s⁻¹	371000 M⁻¹ s⁻¹	3.82e-08 s⁻¹	2660 M⁻¹ s⁻¹	0.00093 s⁻¹	5000 M⁻¹ s⁻¹	0.00108 s⁻¹										SR-AB63-HuFab: human Fab fragment of SR-AB63 used in SPR (antibody, V domains shown) VH: QLQLQESGPGLVKPSETLSLTCTVSGGSIRSSSYYWGWIRQPPGKGLEWIGSISYSATTYYNPSLKSRVTISVDTSKNQFSLKLSSVTAADTAVYYCAGDPSYDSIAGMQVWGQGTTVTVSS VL: DIQLTQSPSSLSASVGDRVTITCRASQSISSYLNWYQQKPGKAPKLLIYAASNLQSGVPSRFSGSGSGTDFTLTISSLQPEDFATYYCQQSFDWPLTFGGGTKVEIK
								sub-nanomolar	337000 M⁻¹ s⁻¹	6e-05 s⁻¹	244000 M⁻¹ s⁻¹	0.000159 s⁻¹	N.B.	N.B.			SR-AB43: cycle 3 light chain-optimized antibody, lineage SR-AB23; CDRs SEQ ID NO: 172-177 (antibody, V domains shown) VH: QVQLVESGGGVVQPGRSLRLSCAASGFTFRSYVMHWVRQAPGKGLEWVAVISHEGSLKYYADSVKGRFTISRDNSKNTLYLQMNSLRAEDTAVYYCARPRIAARRGGFGYWGQGTLVTVSS VL: NFMLTQPHSVSESPGKTVTISCTRSSGNIDYNYVQWYQQRPGSSPTTVIYEDNVRPSGVPDRFSGSIDSSSNSASLTISGLKTEDEADYYCQSYDSDNQRVVFGGGTKLTVL
		1.03e+06 M⁻¹ s⁻¹	0.000284 s⁻¹												1.82e+09 M⁻¹ s⁻¹	6.37 s⁻¹	SR-AB43-HuFab: human Fab fragment of SR-AB43 used in SPR (antibody, V domains shown) VH: QVQLVESGGGVVQPGRSLRLSCAASGFTFRSYVMHWVRQAPGKGLEWVAVISHEGSLKYYADSVKGRFTISRDNSKNTLYLQMNSLRAEDTAVYYCARPRIAARRGGFGYWGQGTLVTVSS VL: NFMLTQPHSVSESPGKTVTISCTRSSGNIDYNYVQWYQQRPGSSPTTVIYEDNVRPSGVPDRFSGSIDSSSNSASLTISGLKTEDEADYYCQSYDSDNQRVVFGGGTKLTVL
405000 M⁻¹ s⁻¹	0.000142 s⁻¹	543000 M⁻¹ s⁻¹	0.000105 s⁻¹	155000 M⁻¹ s⁻¹	0.00604 s⁻¹	80900 M⁻¹ s⁻¹	0.00353 s⁻¹								1.23e+08 M⁻¹ s⁻¹	0.397 s⁻¹	SR-AB42-HuFab: human Fab fragment of SR-AB42 used in SPR (antibody, V domains shown) VH: QVQLVESGGGVVQPGRSLRLSCAASGFTFRSYVMHWVRQAPGKGLEWVAVISHEGSLKYYADSVKGRFTISRDNSKNTLYLQMNSLRAEDTAVYYCARPRIAARRGGFGYWGQGTLVTVSS VL: NFMLTQPHSVSESPGKTVTISCTRSSGNIDNNYVQWYQQRPGSSPTTVIYEDNQRPSGVPDRFSGSIDSSSNSASLTISGLKTEDEADYYCQSYDYDTQGVVFGGGTKLTVL
